Consider 1 molecule from US20050090648A1 (Eli Lilly, published 2005).

In assay [1] the target is T1, Mouse Aβ 1-40 (mouse, UniProt P12023 672-711).
T1 construct: domain: Aβ 1-40; Numbers count on the Aβ peptide
T1 peptide (looked up): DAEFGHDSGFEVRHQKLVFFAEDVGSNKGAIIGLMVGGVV
The assay can be described thus: BIAcore, single concentration of peptide.
Description: (§1) All dilutions were made with HEPES buffered saline containing Tween 20. A single concentration of a variety of fragments of human Aβ or mouse Aβ 1-40 (BioSource International) was used.

The target of assay [2] is T2, Human Aβ fragment 10-20 (human, UniProt P05067 681-691).
T2 construct: domain: Aβ fragment 10-20; Numbers count on the Aβ peptide; also called human amyloid beta 10-20
T2 peptide (looked up): YEVHHQKLVFF
The assay can be described thus: BIAcore, single concentration of fragment. (In SPR one partner is held on a chip, and binding of the other changes the refractive index at the surface.)
Description: as §1

Assay [3] deals with T3, Human Aβ fragment 16-25 (human, UniProt P05067 687-696).
T3 construct: domain: Aβ fragment 16-25; Numbers count on the Aβ peptide; also called human amyloid beta 16-25
T3 peptide (looked up): KLVFFAEDVG
Put plainly: BIAcore, single concentration of fragment.
Description: as §1

The target in assay [4] is T4, β-amyloid peptide (1-42) (UniProt P05067 672-713).
T4 construct: domain: β-amyloid peptide (1-42); Numbers 1-42 count on the Aβ peptide, not on the APP precursor entry; also called Aβ 1-42; Amyloid-beta 1-42
The assay can be described thus: BIAcore 2000, antibody captured by anti-IgG on CM5 chip, Aβ flowed over.
Protocol: Antibody affinity (KD=Kd/Ka) was determined using a BIAcore biosensor 2000 and data analyzed with BIAevaluation (v. 3.1) software. A capture antibody (rabbit anti-mouse or anti-human IgG) was coupled via free amine groups to carboxyl groups on flow cell 2 of a biosensor chip (CM5) using N-ethyl-N-dimethylaminopropyl carbodiimide and N-hydroxysuccinimide (EDC/NHS). A non-specific rabbit IgG was coupled to flow cell 1 as a background control. Monoclonal antibodies were captured to yield 300 resonance units (RU). […] To regenerate the chip, bound anti-Aβ antibody was eluted from the chip using a wash with glycine-HCl (pH 2). A control injection containing no amyloid-beta served as a control for baseline subtraction.

For assay [5], the target named is T4, β-amyloid peptide (1-42). Put plainly: competitive ELISA on coated β-amyloid peptide (1-42); competitor against biotinylated Mu3D6; second set of three experiments. In general terms: ELISA stands for enzyme-linked immunosorbent assay.
Protocol: (§2) After washing the wells with phosphate buffered saline (PBS) containing 0.1% Tween 20 (Washing Buffer) using an ELISA plate washer, the wells were blocked by adding 300 μL of SuperBlock reagent (Pierce) per well. After 30 minutes of blocking, the wells were washed with Washing Buffer and excess liquid was removed.
(§3) As a background control, 100 μl of ELISA Buffer was added. The ELISA plate was incubated at room temperature for 90 min. […] The plate was incubated at room temperature for 30 min and washed with Washing Buffer. For color development, 100 μl/well of ABTS Peroxidase Substrate (Kirkegaard & Perry Laboratories) was added. Color development was stopped by adding 100 μl/well of 2% oxalic acid. […] The absorbances were plotted against the log of the competitor concentration, curves were fit to the data points (using Prism) and the IC50 was determined for each antibody using methods well-known in the art.
Assay [6] concerns the target T4, β-amyloid peptide (1-42). The assay can be described thus: competitive ELISA on coated β-amyloid peptide (1-42); competitor against biotinylated Mu3D6 (0.2 µg/ml); first set of three experiments.
Protocol: as §2, §3

For orientation: Kd means the concentration at which binding is half-saturated. A high value points to weaker binding. In general, IC50 refers to the point on the concentration scale where inhibition reaches its midpoint. Read a low IC50 as higher potency.

T4 sequence (P05067 672-713 limits assumed): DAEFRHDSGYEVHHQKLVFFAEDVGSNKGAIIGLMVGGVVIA

B1: Humanized 3D6 antibody (antibody, human IgG1, kappa, V domains shown)
VH: EVQLVESGGGLVQPGGSLRLSCAGSGFTFSNYGMSWVRQAPGKGLEWVASIRSGGGRTYYSDNVKGRFTISRENAKNSLYLQMNSLRAEDTAVYYCVRYDHYSGSSDYWGQGTLVTVSS
VL: DVVMTQSPLSLPVTLGQPASISCKSSQSLLDSDGKTYLNWLQQRPGQSPRRLIYLVSKLDSGVPDRFSGSGSGTDFTLKISRVEAEDVGVYYCWQGTHFPRTFGGGTKVEIKR
notes: Expressed from pVk-Hu3D6 and pVg1-Hu3D6 in Sp2/0 (human kappa, gamma 1); also called Hu3D6
For B1, the binding result in assay [1], in assay [2] and in assay [3] was “no binding” each time. In addition, the Kd in assay [4] worked out at 2.3 nM. The IC50 in assay [5] was found to be 3.97 µg/mL; in assay [6], 3.3 µg/mL.
